According to the RNAGym collection of RNA variant scans (doi:10.7554/elife.80360):

B1: Hairpin Ribozyme (parent)
chain: GUCCUCUUUCACGUGCGCGUGAAAGAGAGAAGUGAACCAGAGAAACACACGUUGUGGUAUAUUACCUGGUA

Variants of: B1
Experiment: self-cleavage, relative activity (ratio to wild type); higher = more cleavage; co-transcriptional
U2G G42C showed a self-cleavage of 0.252.
Work on C3A U67G yielded a self-cleavage of 0.199.
C3A U67A showed a self-cleavage of 0.132.
With C3A U14G the self-cleavage was 0.623.
In the case of U2G G57U, the self-cleavage is reported as 0.209.
For G1U U70C, the self-cleavage was 0.142.
For C3A A44U, the self-cleavage was 0.148.
In the case of C3A A44G, the self-cleavage is reported as 0.126.
With U2A U58A the self-cleavage was 0.164.
For U2G C3A, the self-cleavage was 0.786.
Variant U2A U70C has a self-cleavage of 0.288.
Variant U2C C37G has a self-cleavage of 0.0267.
U2C A30C gave a self-cleavage of 0.185.
Work on U2C A30U yielded a self-cleavage of 0.0598.
U2A G56A showed a self-cleavage of 0.173.
For U2A G56C, the self-cleavage was 0.0929.
G1U U8G showed a self-cleavage of 0.0482.
G1U U8A gave a self-cleavage of 0.144.
For U2A U63A, the self-cleavage was 0.0695.
With U2A U63C the self-cleavage was 0.0787.
U2A U52A gave a self-cleavage of 0.285.
With U2A U52C the self-cleavage was 0.169.
With U2A A28G the self-cleavage was 0.434.
With U2C G57U the self-cleavage was 0.131.
Variant U2A C4U has a self-cleavage of 0.0895.
U2A G42C gave a self-cleavage of 0.145.
Work on U2A G42U yielded a self-cleavage of 0.122.
U2A G25U gave a self-cleavage of 0.204.
U2G U67C gave a self-cleavage of 0.102.
C3A G40A showed a self-cleavage of 0.23.
U2G A47G showed a self-cleavage of 0.0815.
U2G A47C gave a self-cleavage of 0.358.
U2A A61C gave a self-cleavage of 0.0595.
For U2C A49C, the self-cleavage was 0.189.
In the case of U2C A49G, the self-cleavage is reported as 0.0598.
C3A C12U showed a self-cleavage of 0.59.
Work on U2G A49G yielded a self-cleavage of 0.241.
In the case of U2G A49C, the self-cleavage is reported as 0.0246.
G1U C65U showed a self-cleavage of 0.0631.
G1U C65G gave a self-cleavage of 0.236.
C3A C6U showed a self-cleavage of 0.471.
In the case of U2G U53A, the self-cleavage is reported as 0.195.
Variant G1U U33A has a self-cleavage of 0.123.
Work on G1U U33G yielded a self-cleavage of 0.0782.
For U2C C18U, the self-cleavage was 0.162.
With U2G A64C the self-cleavage was 0.165.
Variant U2G A64G has a self-cleavage of 0.159.
Variant U2C U70A has a self-cleavage of 0.241.
G1U U2G gave a self-cleavage of 0.22.
Variant U2G U58A has a self-cleavage of 0.263.
U2G U58G gave a self-cleavage of 0.255.
With U2G G19A the self-cleavage was 0.311.
In the case of C3A U8C, the self-cleavage is reported as 0.427.
In the case of U2C G54U, the self-cleavage is reported as 0.193.
Work on C3A A24U yielded a self-cleavage of 0.703.
Variant U2C C3G has a self-cleavage of 0.214.
In the case of U2C C3U, the self-cleavage is reported as 0.131.
For C3G A28U, the self-cleavage was 0.647.
C3A U33A showed a self-cleavage of 0.0769.
Variant U2A A45C has a self-cleavage of 0.154.
U2A A45G showed a self-cleavage of 0.0349.
With C3A G69C the self-cleavage was 0.342.
Work on C3A G57C yielded a self-cleavage of 0.169.
Variant U2C A47G has a self-cleavage of 0.
U2C A47U showed a self-cleavage of 0.203.
In the case of U2G C46U, the self-cleavage is reported as 0.11.
For U2A G69C, the self-cleavage was 0.111.
Variant C3A G29U has a self-cleavage of 0.0763.
U2G G29C showed a self-cleavage of 0.122.
Variant C3A G34C has a self-cleavage of 0.984.
For U2G U62C, the self-cleavage was 0.0918.
For U2G U62G, the self-cleavage was 0.11.
G1U G51C gave a self-cleavage of 0.175.
G1U G51A gave a self-cleavage of 0.205.
Work on U2C C16G yielded a self-cleavage of 0.246.
With C3A C4G the self-cleavage was 0.359.
Work on C3A C4U yielded a self-cleavage of 0.42.
Variant U2A A43U has a self-cleavage of 0.0943.
For C3A A35U, the self-cleavage was 0.479.
C3A A35G gave a self-cleavage of 0.897.
U2A C65U gave a self-cleavage of 0.128.
In the case of G1U U60G, the self-cleavage is reported as 0.259.
C3A G13C gave a self-cleavage of 0.51.
For C3A U5A, the self-cleavage was 0.214.
In the case of G1U G13C, the self-cleavage is reported as 0.151.
With G1U G13U the self-cleavage was 0.156.
U2C C65U gave a self-cleavage of 0.162.
In the case of U2C C65G, the self-cleavage is reported as 0.0439.
For U2G G15A, the self-cleavage was 0.55.
For C3G A35G, the self-cleavage was 0.291.
With U2A C48A the self-cleavage was 0.159.
With C3A G42C the self-cleavage was 0.214.
U2A A11G gave a self-cleavage of 0.344.
Work on U2A U8G yielded a self-cleavage of 0.201.
U2A U8C showed a self-cleavage of 0.162.
Work on U2A U8A yielded a self-cleavage of 0.279.
Work on G1U G54C yielded a self-cleavage of 0.176.
For C3A C38A, the self-cleavage was 0.215.
In the case of C3A U9G, the self-cleavage is reported as 0.576.
C3A U9C gave a self-cleavage of 0.532.
With C3A U9A the self-cleavage was 0.401.
Variant C3A A26G has a self-cleavage of 0.736.
C3A A26C gave a self-cleavage of 0.402.
For U2C C46A, the self-cleavage was 0.232.
For C3A C18A, the self-cleavage was 0.634.
C3A C18U showed a self-cleavage of 0.717.
Variant U2C G25C has a self-cleavage of 0.118.
Variant C3A A31G has a self-cleavage of 0.425.
Work on U2A C37G yielded a self-cleavage of 0.123.
For U2C A26U, the self-cleavage was 0.13.
With U2A A71U the self-cleavage was 0.186.
For U2A A71C, the self-cleavage was 0.656.
With U2G U8C the self-cleavage was 0.255.
For G1U G27A, the self-cleavage was 0.148.
For U2A U20A, the self-cleavage was 0.198.
U2A U20C showed a self-cleavage of 0.336.
Work on U2A G32U yielded a self-cleavage of 0.155.
Work on U2G A44C yielded a self-cleavage of 0.108.
U2A C66A showed a self-cleavage of 0.124.
Variant C3A C65U has a self-cleavage of 0.222.
In the case of U2A A31C, the self-cleavage is reported as 0.13.
C3A A59C gave a self-cleavage of 0.121.
With C3A A59G the self-cleavage was 0.0686.
Work on U2A G13A yielded a self-cleavage of 0.26.
U2A G13C gave a self-cleavage of 0.158.
C3A U20G showed a self-cleavage of 0.607.
In the case of C3A U20A, the self-cleavage is reported as 0.582.
Work on U2A A47G yielded a self-cleavage of 0.102.
With U2A A47C the self-cleavage was 0.183.
Variant U2A C46U has a self-cleavage of 0.0639.
U2G U14A gave a self-cleavage of 0.216.
G1U U58A showed a self-cleavage of 0.0365.
With U2G A61C the self-cleavage was 0.109.
Work on U2G A61G yielded a self-cleavage of 0.15.
In the case of C3A A64C, the self-cleavage is reported as 0.197.
C3A A64G gave a self-cleavage of 0.54.
With U2C A71C the self-cleavage was 0.444.
C3A G51U showed a self-cleavage of 0.792.
G1U U20A gave a self-cleavage of 0.1.
For C3A A41U, the self-cleavage was 1.25.
Variant C3A A41C has a self-cleavage of 1.07.
Variant U2A A44C has a self-cleavage of 0.0634.
In the case of U2A A44U, the self-cleavage is reported as 0.0374.
In the case of C3A G54A, the self-cleavage is reported as 0.351.
Work on C3A G54C yielded a self-cleavage of 0.206.
U2A G15U gave a self-cleavage of 0.289.
With U2G A71C the self-cleavage was 0.77.
With U2A A49C the self-cleavage was 0.149.
Work on C3A U52A yielded a self-cleavage of 0.7.
In the case of C3A C10U, the self-cleavage is reported as 0.595.
In the case of U2C A28G, the self-cleavage is reported as 0.
Work on U2C A28C yielded a self-cleavage of 0.117.
For U2C A22G, the self-cleavage was 0.0938.
For U2G C10U, the self-cleavage was 0.269.
With U2G C10G the self-cleavage was 0.287.
U2G G13U gave a self-cleavage of 0.246.
U2G G13C gave a self-cleavage of 0.29.
In the case of C3G A26G, the self-cleavage is reported as 0.338.
Work on U2G G34A yielded a self-cleavage of 0.37.
Variant C3A G17U has a self-cleavage of 0.571.
C3A C50G showed a self-cleavage of 0.199.
For U2C G40A, the self-cleavage was 0.192.
U2C G40C showed a self-cleavage of 0.0737.
In the case of C3G A22G, the self-cleavage is reported as 0.264.
For G1U G56U, the self-cleavage was 0.0984.
Work on U2A A30U yielded a self-cleavage of 0.0131.
Work on U2A C18A yielded a self-cleavage of 0.23.
